According to the supplement of paper PMC9170038:

How the values were obtained:
MS2 coat protein [1] = experiment: apparent KD of MS2 coat protein, switch ON state; designed switch direction (-1 OFF switch, 1 ON switch): 1; higher = weaker reporter binding; details: FMN input: 0 or 200 uM; Eterna round: R93 (includes R88 designs)
How it was run: (§1)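 In 100 mM Tris-HCl pH 7.5 with 80 mM KCl and 4 mM MgCl2, and without or with constant ligand, SNAP-549-labelled MS2 coat protein was titrated in twofold steps from 0.7 or 1.5 nM to 3 µM. Per-step times went from 0.8–1.5 h down to 10–20 min. The RNA switches were transcribed on-chip from Illumina sequencing clusters, and apparent KD is the per-design median of normalised cluster binding-curve fits.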

MS2 coat protein [2] = experiment: apparent KD of MS2 coat protein, switch OFF state (with FMN for OFF switches, without FMN for ON switches); designed switch direction (-1 OFF switch, 1 ON switch): 1; higher = weaker reporter binding; details: FMN input: 0 or 200 uM; Eterna round: R93 (includes R88 designs)
How it was run: as §1

Sequence | apparent KD of MS2 coat protein (MS2 coat protein [1]) [nM] | apparent KD of MS2 coat protein (MS2 coat protein [2]) [nM]
ACAAACAAAAGAGAGGAUAUCCAAAAGAAAACAUGAGGAUCACCCAUGUGAAAGAAAAUAAAAUGGGAGAAGGCUCAGAACAACA [Topaz 28] | 29.2 | 46.2
ACAAAGCUACACUAGGAUAUGGGUGUCUAAACAUGAGGAUCACCCAUGUGAUGGCAAAACAAAGCUCAGAAGGAGUCGUAGCCCA [Bientevece] | 15 | 34.9
ACCCGACAUGAGGAUCACCCAUGUAAACAAUCAUGAGGAUAUCCGGAGCAAAUGCUCAAGGGAGAAGGCAUAAAAG [Onrequus] | 29.5 | 132
ACUACACAUGAGGAUCACCCAUGUCAGGUCGGACUAGGAUAUUAUAAACCAGAGUAAAAAUAAGAAGGAGUAGAAA [JR_SS001_Sub309] | 37.9 | 29.9
ACUAUACAUGAGGAUCACCCAUGUCAGGUGGGACUAGGAUAUCAAAAGCCAGAGUAAGAAUGAGAAGGAGUAGAAA [JR_SS001_Sub304] | 66.4 | 69.3
AGAAAACAUGAGGAUCACCCAUGUAGGAAUAUGGGAGGAUAUACAGAGACGAAAGUCAGAGUAGAAGGCCUAAGAA [salish99-SS1-088] | 24 | 96.7
AGAAAACAUGAGGAUCACCCAUGUGAUAACAUGGGAGGAUAUACGAGGACGAGAGUCAAGGUAGAAGGCCUAAAGA [Garnet 72] | 111 | 114
AGAAAUAAAAGAGAGGAUAUCCAAAAGGGAACAUGAGGAUCACCCAUGUAAAUGAAAAUAAAAUGGGAGAAGGCUCAAAAUAAAG [80% More Helter Skelter 2] | 54.6 | 85
AGAAGGUGGGUCGAGGAUAUCAGGCACGCCACAUGAGGAUCACCCAUGUUUUUGGCACCGCCCAAUGAGAAGGUGAACACCUUCA [Cesobe] | 9.34 | 12.4
AGAAUAAAAAGACAGGAUAUCCAAAAUAAAACAUGAGGAUCACCCAUGUAAAAAAAAUAAAAAUGGGAGAAGGGUCAAAAUAAGA [Mat - Same State 2 - JL mod - D63] | 18.8 | 31.9
AGAGAUAACAGAGAGGAUAUCCAAUAGAAAACAUGAGGAUCACCCAUGUGAAAGAUAAUAAAAUGGGAGAAGGCUCACAAUAAGA [Topaz 42] | 15.8 | 39.8
AGCCAACAUGAGGAUCACCCAUGUCAAACAAGUCAAGGAUAUGGGCCUCUAAAAGGAGUACCAGAAGGUGAGAAAU [Vequatge] | 123 | 52.6
AGCUAACAUGAGGAUCACCCAUGUCCGCUAAACCAAGGAUAUGGGACGAAUAAAAUCGGACCAGAAGGUGGCCGAC [Qureaed] | 218 | 222
AGGAAACAUGAGGAUCACCCAUGUAAAAAUAUGGGAGGAUAUACAAAGACGAAAGUGAGAGUAGAAGGCCUAAAAG [Garnet 18] | 35.6 | 124
AGGAAACAUGAGGAUCACCCAUGUAAAGAAGGGUGAGGAUAUACAAAGAAAAGAAAGAAAGUAGAAGGCACAAAAG [Mongoose] | 233 | 113
AGGAAGGAGAGAGAGGAUAUCCAAAGGAAAACAUGAGGAUCACCCAUGUAGAAGGUAGGAAAUUGGGAGAAGGCUCAAGAGACAG [salish99-ss2-126] | 16.8 | 49.5
AGGAGACAUGAGGAUCACCCAUGUGAGAAGAGGCGAGGAUAUCGAAAGAAAGAAGAGAAACGAGAAGGCGCGAGCC [salish99-SS1-032] | 28.1 | 28.8

Sequence | apparent KD of MS2 coat protein (MS2 coat protein [1]) [nM] | apparent KD of MS2 coat protein (MS2 coat protein [2]) [nM]
AGUCAACAUGAGGAUCACCCAUGUCUGAGAGCAUGAGGAUAUCUAGAUGGGCAGCAUGAUAGAGAAGGCAUGCGCC [Biongear] | 173 | 116
AUAAAACAUGAGGAUCACCCAUGUAGAAAUAUGGGAGGAUAUACAAAGACGAAAGUCAAGGUAGAAGGCCUAAAAG [Mat - Same State 1 - Meechl mod - D118] | 39.1 | 47.4
AUAAAACAUGAGGAUCACCCAUGUAGAAAUAUGGGAGGAUAUACUAGAUCGAAAGAUCUAGUAGAAGGCCUAAAAG [JL Mod of Eli 1] | 27.6 | 60.7
AUAAAACAUGAGGAUCACCCAUGUCAACAAAGUCGAGGAUAUGGGCAAAUAAAAUAAGAACCAGAAGGCGAAUAAU [Teenbexe] | 32.2 | 593
AUAAAAUAAAGGGAGGAUAUCUAUAAUAAAACAUGAGGAUCACCCAUGUUAAAAAGAAGAUCAUGGGAGAAGGCCUAAAAUAAAU [SS2 M 30] | 37.9 | 46.1
AUAUGAGCUAAUGAGGAUAUCCAUAAUAAGACAUGAGGAUCACCCAUGUAAACAAAACAAUAAUGGGAGAAGGCAUUAGCUCAAU [SS 2 M49] | 45.7 | 58.8
AUAUGAGCUAUGGAGGAUAUCCAUAAUAAAACAUGAGGAUCACCCAUGUAAGAAAGAAAAGAAUGGGAGAAGGCCAUAGCUCAAU [SS 2 M44] | 11.6 | 13.1
AUGAGGAAGAGAGAGGAUAUCCAAAGGAAAACAUGAGGAUCACCCAUGUAAAAGGUAGGAAAUUGGGAGAAGGCUCAAGAGAGAG [salish99-ss2-065] | 23.4 | 44.7
AUGGUGUAGGUACAGGAUAUGUUGCUCGUAACAUGAGGAUCACCCAUGUACCUAUGAGAUUAAAUGCAGAAGGGUGCACACCACG [Usbivece] | 70.1 | 35.5
AUUAAACAUGAGGAUCACCCAUGUGGCAAAAGCACAGGAUAUAGGAGUCCGAGCAGACAACUAGAAGGGUGGAAAA [Rixelexe] | 28.8 | 53.7
CAAACAACAACACAGGAUAUACAUAUAAUAACAUGAGGAUCACCCAUGUAAGGCAAAAAUAAGCUGUAGAAGGGUGAACACACAA [Default title] | 10.6 | 14.1
CAGAAGGAGAGAGAGGAUAUCCAAAGGAAAACAUGAGGAUCACCCAUGUAAAAGGUAGGAAAUUGGGAGAAGGCUCAAGAGAGAG [salish99-ss2-110] | 33.2 | 33.3
CAGAGACAUGAGGAUCACCCAUGUAGGAUUAUGGGAGGAUAUACAAAGACGAGAGUCAGAGUAGAAGGCCUAGGAU [salish99-ss1-142] | 21.2 | 52.7
CGAAGACAUGAGGAUCACCCAUGUGGGAAUAUGGGAGGAUAUACAAAGACGAGAGUCAGAGUAGAAGGCCUAGGAG [salish99-ss1-106] | 40.2 | 59.3
CUGGACAUAGUACAGGAUAUAUGAAUAGUCACAUGAGGAUCACCCAUGUGCAUUUAUAUGCGCACAUAGAAGGGUGGUAGUUAAG [Mat - Same state - Malcolm Mod - D140] | 180 | 57.9
GAAAAACAUGAGGAUCACCCAUGUAAAAAAAUGGGAGGAUAUACAAAGACGAAAGUCAAAGUAGAAGGCCUGAAAG [same state 2] | 18 | 81.8
GAAAAACAUGAGGAUCACCCAUGUAAGAUAAACACAGGAUAUGCGAAAAGAAACAAAGAAGCAGAAGGGUGAAGAA [Mat - Same State 1 - Tesla mod - 46] | 18 | 30.2
